# B1: NAD-dependent protein deacetylase sirtuin-1 (Homo sapiens), Q96EB6 (parent)
# chain: MADEAALALQPGGSPSAAGADREAASSPAGEPLRKRPRRDGPGLERSPGEPGGAAPEREVPAAARGCPGAAAAALWREAEAEAAAAGGEQEAQATAAAGEGDNGPGLQGPSREPPLADNLYDEDDDDEGEEEEEAAAAAIGYRDNLLFGDEIITNGFHSCESDEEDRASHASSSDWTPRPRIGPYTFVQQHLMIGTDPRTILKDLLPETIPPPELDDMTLWQIVINILSEPPKRKKRKDINTIEDAVKLLQECKKIIVLTGAGVSVSCGIPDFRSRDGIYARLAVDFPDLPDPQAMFDIEYFRKDPRPFFKFAKEIYPGQFQPSLCHKFIALSDKEGKLLRNYTQNIDTLEQVAGIQRIIQCHGSFATASCLICKYKVDCEAVRGDIFNQVVPRCPRCPADEPLAIMKPEIVFFGENLPEQFHRAMKYDKDEVDLLIVIGSSLKVRPVALIPSSIPHEVPQILINREPLPHLHFDVELLGDCDVIINELCHRLGGEYAKLCCNPVKLSEITEKPPRTQKELAYLSELPPTPLHVSEDSSSPERTSPPDSSVIVTLLDQAAKSNDDLDVSESKGCMEEKPQEVQTSRNVESIAEQMENPDLKNVGSSTGEKNERTSVAGTVRKCWPNRVAKEQISRRLDGNQYLFLPPNRYIFHGAEVYSDSEDDVLSSSSCGSNSDSGTCQSPSLEEPMEDESEIEEFYNGLEDEPDVPERAGGAGFGTDGDDQEAINEAISVKQEVTDMNYPSNKS
# Variants of: B1
# Conditions: with rptor_human RPTOR
row,effect of a mutation on the interaction,Variant
1,decreasing interaction,F474A

# — IntAct's records for PubMed 21471201
